Data taken from the supplement of paper PMC9170038.

Tested on: MS2 coat protein
Assay: apparent KD of MS2 coat protein; higher = weaker reporter binding
Conditions: Eterna round: R107
Method in brief: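 For every design, apparent KD is the median of normalised binding-curve fits from its clusters. The RNA switches were transcribed on-chip from Illumina sequencing clusters and titrated with SNAP-549-labelled MS2 coat protein (twofold steps, 0.7 or 1.5 nM to 3 µM; 0.8–1.5 h to 10–20 min per step). Titrations used 100 mM Tris-HCl pH 7.5, 80 mM KCl, 4 mM MgCl2, without or with constant ligand.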

[1] = input ligand: theophylline 20 uM
[2] = input ligand: tryptophan 2.4 mM
[3] = input ligand: theophylline 2 mM

Sequence	apparent KD of MS2 coat protein (input ligand: arginine 13.2 mM)	apparent KD of MS2 coat protein [1]	apparent KD of MS2 coat protein [2]	apparent KD of MS2 coat protein (input ligand: none)	apparent KD of MS2 coat protein [3]
GGGUUACUCUAUGAUACCAGUUCCAUGCCGAAACCUGUGUACAUGAGGAUCACCCAUGUGAACCCUUGGCAGCAUUAAUCAACUG [theeternabot_exclusion_MS2_Theo_B_35]	51.5 nM	163 nM	69.5 nM	–	–
GGUAUGUAUUCGGAAACGAAUGCAUACCAACGAGGACCGGUACGGCCGCCACUCGCGGCUGAUCAACAUGAGGAUCACCCAUGUA [Ex Tryptophan A 4]	19.4 nM	33 nM	28.4 nM	24.8 nM	31.5 nM
GGUAUGUAUUCGGAAACGAAUGCAUACCAACGAGGACCGGUACGGCCGCCACUCGGCCGUGAUCAACAUGAGGAUCACCCAUGUA [Ex Tryptophan A 6]	16.3 nM	21.5 nM	–	–	20.2 nM
GGUCUCUGGAGCGAUACCAGCUUGAUCGUACUGGCCUGGUACAUGAGGAUCACCCAUGUAAGCCCUUGGCAGCGCUCCAGAGACC [#1 Exclusion - Theophylline B Attempt #8 (HarryS)]	11.8 nM	16.3 nM	11.2 nM	–	–
GGUGGGACUUGUGAUACCAGCCUAAUUCUAAACGAAUUGCACAUGAGGAUCACCCAUGUCGGCCCUUGGCAGCAUGAGUAUUUAU [Anartiison]	73.3 nM	104 nM	117 nM	–	–
GGUGGUGGGACGGAUACCAGCCACCGCGGCAACGCAACAUGAGGAUCACCCAUGUUGGGUGGCCCUUGGCAGCUGUCCUGCGGCG [#1 Same State - Theophylline B Attempt #25 (HarryS)]	12.6 nM	18.5 nM	12.7 nM	–	–
GGUGGUGUGACGGAUACCAGCCACCGCGGCAACGCAACAUGAGGAUCACCCAUGUUGGGUGGCCCUUGGCAGCUGUCGUGCGGCG [#1 Same State - Theophylline B Attempt #24 (HarryS)]	40.1 nM	91.2 nM	53.9 nM	–	–
GGUGUAAUUGACUCUUUGUUUUAUUUGUAACGAGGACCGGUACGGCCGCCACUCGAUAUUCACAUGAGGAUCACCCAUGUUAGCU [JR_ExcTryptoA_Sub006]	19.1 nM	22.5 nM	–	–	24.3 nM
GGUUACUCUACGGCCGCCACUGAACAUGAGGAUCACCCAUGUAAUGUUCAGACGUCUUUAGACGACAGGACCGGGUAGUGUAACC [Tryptophan B 5]	119 nM	208 nM	–	–	232 nM
GGUUACUCUACGGCCGCCACUGUAAAGUAAAGAUACCUGUACAUGACAUGAGGAUCACCCAUGUACAGGACCGGGUAGUGUAACC [Tryptophan B 16]	133 nM	636 nM	–	–	804 nM
GGUUACUCUACGGCCGCCACUGUCAUGUAAAGAUACCUGUACAUGACAUGAGGAUCACCCAUGUGCAGGACCGGGUAGUGUAACC [Tryptophan B 18]	91.3 nM	177 nM	–	–	201 nM
GGUUCCUCAACGGCCGCCACUUACUGGAUUAGUGGACCUACUUGCAACAUGAGGAUCACCCAUGUAAGGACCGGGUUGCUCCCAA [theeternabot_exclusion_MS2_Trp_B_34]	46.9 nM	90.1 nM	–	–	87.9 nM
GGUUGGUCCUCACAUGAGGAUCACCCAUGUCGAGGACCGGUACGGCCGCCACUCGAUUGUACCAGGGCUUAAGAGCCUAUGAGCA [Erenedquce]	12.6 nM	23.9 nM	–	–	17.6 nM
GGUUGGUGUAUAUAUAUAUUGAUUACUGAAGGAGCGGGAAAUAACCCAGGUAGGUCGCAGAGAUCCACAUGAGGAUCACCCAUGU [!0.J]	31 nM	50.2 nM	38.9 nM	53.7 nM	51 nM
GGUUUCGCGGGCGAUACCAGCUUGAUCGUACUGGCCUGGUACAUGAGGAUCACCCAUGUAAGCCCUUGGCAGCGCGCGCGAGACC [#1 Exclusion - Theophylline B Attempt #4 (HarryS)]	13.3 nM	16.9 nM	11.7 nM	–	–
GUAAAUUAUAGAAGGAGCGUCGAAAAUGGGUAAACAUGAGGAUCACCCAUGUAAAGGGAACGACAGGUAGGUCGCUAUAAUUUAC [AstromonsSSArgB#15]	116 nM	190 nM	167 nM	170 nM	259 nM
GUACACUAGUCGGCCGCCACUGUUACAUGAGGAUCACCCAUGUAGGAUCACCCAUGACAUGAGGAUAGGACCGGGACGCAUGAGG [Exclusion Tryptophan B]	56.8 nM	56.1 nM	–	–	69 nM
GUACAUGAGGAUCACCCAUGUAUAGUUGAAGGAGCGACCAGAGGGUCAGGUAGGUCGCAGCACAUGAGGUAAGGCCGUGUAUGCU [#1 Exclusion - Arginine A Attempt #20 (Inspired by Pi)]	17.2 nM	23.9 nM	16.8 nM	15.2 nM	21.7 nM

Sequence	apparent KD of MS2 coat protein (input ligand: arginine 13.2 mM)	apparent KD of MS2 coat protein [1]	apparent KD of MS2 coat protein [2]	apparent KD of MS2 coat protein (input ligand: none)	apparent KD of MS2 coat protein [3]
GUAGCGACGACGGCCGCCACUCACACGAGAGGGUAGACCAACCUUCACAUGAGGAUCACCCAUGUGAGGACCGGGUUGUCGGUAC [Exclusion - Tryptophan B]	20 nM	26.6 nM	–	–	33 nM
GUCACCAGGAGAAGGAGCGUGAAGACAUGAGGAUCACCCAUGUAGAGGCGCCGACGGCGUUCGCAGGUAGGUCGCUCCUGGUGAC [#1 Same State - Arginine B Attempt #17 (HarryS)]	22 nM	35.2 nM	20.4 nM	20.5 nM	26.6 nM
GUCAGUGACAGAAGGAGCGACAUGAGGAUCACCCAUGUCUCCCGUUAUGGGAGUUCCUUAGGUCAGGUAGGUCGCUGUCACUGAC [#1 Exclusion - Arginine B Attempt #30 (Inspired by Omei)]	227 nM	137 nM	194 nM	215 nM	284 nM
GUCCUCAUGACGGCCGCCACUAAACAUGAGGAUCACCCAUGUAAUGAUCCAUUAAAUGAUAAUAGUAGGACCGGGUCAAAAUAAA [Same State Typptophan B GF11]	135 nM	833 nM	–	–	979 nM
GUCCUCGACACGGCCGCCACUGGCUCGCCUGUUGGCGCCGACCCACAUGAGGAUCACCCAUGUUCCAGGACCGGGUGUCACAGCA [theeternabot_sameState_MS2_Trp_B_42]	64.6 nM	312 nM	–	–	311 nM
GUCGCUGAGAGAAGGAGCGUGAAGACAUGAGGAUCACCCAUGUAGAGGCGCCGAAGGCGUUCGCAGGUAGGUCGCUCUCAGUGAC [#1 Same State - Arginine B Attempt #21 (HarryS)]	10.2 nM	19.2 nM	17.3 nM	15.4 nM	21.8 nM
GUCGGAGUCGGAAGGAGCGACAUGAGGAUCACCCAUGUCUCCCGUUAUGGGAGUUCCUUAGGUCAGGUAGGUCGCCGACUCCGAC [#1 Exclusion - Arginine B Attempt #24 (Inspired by Omei)]	104 nM	202 nM	240 nM	190 nM	234 nM
GUCUCUGAGAGAAGGAGCGUGAAGACAUGAGGAUCACCCAUGUAGAGGCGCCGACGGCGUUCGCAGGUAGGUCGCUCUCAGAGAC [#1 Same State - Arginine B Attempt #19 (HarryS)]	38.4 nM	35 nM	23.7 nM	22 nM	17.1 nM
GUCUUUGACGAUCUGGGAAAACCAGAUCGACGAGGACCGGUACGGCCGCCACUCGUGUUUUCUUUACAUGAGGAUCACCCAUGUA [#17 Tryptophan A Same State]	13.2 nM	15.7 nM	–	–	15.1 nM
GUGAAGUUAGUGAGCGUUAGUCAAGCCAAACGAGGACCGGUACGGCCGCCACUCGCGCAUCGACAUGAGGAUCACCCAUGUGCCG [theeternabot_exclusion_MS2_Trp_A_12]	18.4 nM	15.7 nM	–	–	17.7 nM
GUGACUUAAAGGCGCCAUUUGUGAUAGGAAGGAGCGGCGAAAUAGCCAGGUAGGUCGCCUAUACAUGAGGAUCACCCAUGUCACC [XARG-A 26]	48.7 nM	84.4 nM	73.7 nM	98.5 nM	123 nM
GUGAGCGCCGAACAUCGCUGGUCCUCUAUCCGAGGACCGGUACGGCCGCCACUCGACAUGAGGAUCACCCAUGUUGGCACUGGCG [Inbemama]	9.22 nM	13.4 nM	–	–	11.7 nM
GUGCGGUCUGAUGAUACCAGAUGUGGUGGGAACAUGAGGAUCACCCAUGUUGUGAGGCAGGUCCCUUGGCAGCAUGAGUGAGCUU [TheoB-ms2@32-2]	12.4 nM	229 nM	72.6 nM	119 nM	156 nM
GUGCUGGUAUCGGCCGCCACUGUAACAUGACAUCCCAGGGCCGACAUGAGGAUCACCCAUGUUAACAGGACCGGGAUAUCAACGA [Riorquen]	13.2 nM	28.9 nM	–	–	19.5 nM
GUGGAGACACGAGAUACCAGUCUCUAUAACAUGAGGAUCACCCAUGUAAUGCUCCUCAGGGACCCUUGGCAGCUCAGUAUGAUGA [Exclusion - Theophylline B]	34.8 nM	54.5 nM	35.7 nM	–	–
GUUACAUGGCAAGCAUGUAUAUGGAUAGAUACCAGUUGAUAUUAAGACCCUUGGCAGCUGAGUACAUGAGGAUCACCCAUGUAAG [Theo A Ex t3]	28.4 nM	46.9 nM	51.9 nM	–	–
GUUAUAUGAAAACAUAUAACAGUGGGUGAACGAGGACCGGUACGGCCGCCACUCGGACAUGAGGAUCACCCAUGUCCAUGUGAAA [AstrosExyTryA#6]	15.2 nM	17.4 nM	–	–	22 nM
